Assays:
[1] = Release of BSA-FITC from wet silica sol-gel suspended in 3% HPMC hydrogel or buffer (dialysis tubes); assay type: physicochemical; conditions: BSA-FITC in silica hydrogel (SiO2 8%), equal volume of release buffer or 3% HPMC; PBST+0.1% BSA at 37° C.
Experimental: In a preliminary test it was evaluated if the use of hydrogel of 3% w/v HPMC as diluent for the suspension of silica nanoparticles influences the release of a protein incorporated therein. To this purpose, preparations constituted by silica hydrogel having incorporated the model protein BSA-FITC, suspended in an equal volume of release buffer or t 3% HPMC, were inserted in dialysis tubes (cut-off 100 KDa) and immersed in PBST+0.1% BSA at 37° C. At programmed time points the content of BSA-FITC was quantified in the acceptor solution by fluorescence spectroscopy.

[2] = Release of SB3 from wet silica sol-gel into buffer (ELISA quantification); assay type: physicochemical; conditions: wet silica sol-gel (8% SiO2 w/w), crushed manually; gels loaded at SB3 5 and 50 μg/mL; immersion in buffer at 37
Experimental: 200 μl of the prepared product containing SB3 in silica hydrogel were suspended in 10 mL of phosphate buffer 100 mM, 0.05% Tween 20, 0.1% BSA, pH 6.0 and incubated at 37° C. under slight stirring. At defined time moments (0 h, 5 h and 24 h) the sample was centrifuged (1390 g) and a small portion of supernatant (250 μl) was removed by titration of SB3 and replaced with fresh buffer. The compound was then re-suspended in the supernatant by a slight vortex and the incubation at 37° C. was continued until the subsequent moment. The concentration of SB3 in the supernatants was quantified by sandwich ELISA (kit HEPA Lisa, Xeptagen S.p.A, Vega Park, Venice) by following the manufacturer's instructions. […] After washing, the concentration of SB3 was detected by incubation with 100 μL of anti-SB3 secondary Ab conjugated with streptavidin HRP (0.5 μg/mL). The plate was developed with a solution of substrate 3,3′,5,5′-tetramethylbenzidin (TMB) ready for use. The reaction was interrupted with 1 mol/L of HCl (100 μL) and the absorbance at 450 nm was measured on a reader of microplates (Victor×3; Perkin Elmer, Waltham, MA, USA). […]

[3] = system: MDCK cells; test: Scatter assay on MDCK cells; assay type: cell-based, canine; conditions: solution of release from gel at SB3 50 μg/mL; similar to recombinant SB3 positive control (CTR+)
Experimental: The results were represented graphically by tracing the ratio between the amount of protein released in each time point (Mt) and the total protein (Mtot) incorporated in function of time. The released functional capability of SB3 was verified by scatter assay, as previously reported (Quarta et al. J Pathol 2010; 221:343-356). In detail, canine kidney cells Madin-Darby (MDCK) (5×10^3 cells/well), were treated with two different dilutions of SB3 released by the wet silica microspheres for 5 and 24 hours. The cells were fixed in 4% formaldehyde, coloured with blue solution of Coomassie and the scattering effect was analysed by using the Axiovert 200M microscope (Carl Zeiss Microscopy GmbH, Germania). As positive control, SB3 recombinant at 200 ng/ml was used.

Molecule	Release profiles in presence or absence of HPMC hydrogel [1]	Mechanism of SB3 release (Mt/Mtot % vs square root of time, linear correlation) [2]	Scattering of cohesive cell colonies [3]
BSA-FITC: model protein BSA-FITC incorporated in silica hydrogel	almost superimposable	–	–
SB3: human SerpinB3 protease inhibitor protein, produced recombinantly; incorporated in wet silica sol-gel (8% SiO2) (protein, UniProt P29508 1-390, looked up) Serpin B3: MNSLSEANTKFMFDLFQQFRKSKENNIFYSPISITSALGMVLLGAKDNTAQQIKKVLHFDQVTENTTGKAATYHVDRSGNVHHQFQKLLTEFNKSTDAYELKIANKLFGEKTYLFLQEYLDAIKKFYQTSVESVDFANAPEESRKKINSWVESQTNEKIKNLIPEGNIGSNTTLVLVNAIYFKGQWEKKFNKEDTKEEKFWPNKNTYKSIQMMRQYTSFHFASLEDVQAKVLEIPYKGKDLSMIVLLPNEIDGLQKLEEKLTAEKLMEWTSLQNMRETRVDLHLPRFKVEESYDLKDTLRTMGMVDIFNGDADLSGMTGSRGLVLSGVLHKAFVEVTEEGAEAAAATAVVGFGSSPTSTNEEFHCNHPFLFFIRQNKTNSILFYGRFSSP	–	takes place through a diffusion process	induced the 20 time-depending scattering of strictly cohesive colonies of MDK cells

Source: patent US20250099379A1, “NEW SYSTEM FOR THE TOPICAL PHARMACOLOGICAL RELEASE OF AN ACTIVE INGREDIENT” (UNIVERSITÀ DEGLI STUDI DI PADOVA, priority 2022, published 2025)
